Data on one substance can be found in patent publication US20130045539.

The test system of the data set is hsRAG1 engineered meganuclease (I-CreI-derived) (artificial (I-CreI backbone, Chlamydomonas reinhardtii?)). The data set is described as follows: cell_activity. The following applies: HEK-293, meganuclease-driven targeted integration at RAG1; other lines 7-16%; indirect readout of cleavage.

With “human RAG1 locus meganuclease target site”, the activity (% targeted clones) amounted to 44.
